Data as given in patent US20260347481 (published 2026).
One block for each binder: values may come before it. Non-standard residues stand in square brackets, D forms with d. No end group written: not given here. *: point of attachment. Biotin = O=C1N[C@H]2[C@H](CS[C@H]2CCCCC(=O)*)N1; Arg(Me2a) = CN(C)C(=N)NCCC[C@H](N)C(=O)O

Target: T1, Target peptide (meEGFR R198/R200) (human, cysteine pairing not given here)
T1 chain: K(Biotin)QCSG[Arg(Me2a)]C[Arg(Me2a)]GKSPSDC-NH2

EC50: 0.0359 nM
B1: Example 2 (antibody, V domains shown)
VH: QVQLQESGPGLVKPSETLSLTCSVSGDSITRSGYYWAWVRQSPGKGLEYIGSISYSGTTYYNPSLKSRVTISVDTSKNQFSLKLSSVTAADTAVYYCAREWNGLDVWGKGTMVTVSS
VL: LNFMLTQPHSVSESPGKTVTISCTRSSGSIASNYVQWYQQRPGSSPTTVIYEDNQRPFGVPDRFSGSIDSSSNSASLTISGLKTEDEADYYCQSYDSGHQIFGGGTKLTVLG

EC50: 0.0258 nM
B2: Example 3 (antibody, V domains shown)
VH: QVQLQESGPGLVKPSGTLSLTCAVSGDSISSSSYYWGWIRQPPGKGLEWIGSIYYSGSTYYNPSLKSRVTISVDTSKNQFSLKLSSVTAADTAVYYCAREWNGLDVWGKGTLVTVSS
VL: LNFMLTQPHSVSESPGKTVTISCTGSSGSIASNYVQWYQQRPGSAPTTVIYEDNQRPSGVPDRFSGSIDSSSNSASLTISGLKTEDEADYYCQSYDRGNTEVMFGGGTKVTVLG
